{"source": "patent US7282356B2", "about": "“D-aminoacylase mutants” (Daicel Chemical Industries, Ltd., priority 2002, dated 2007)", "molecules": {"B1": {"name": "wild-type: D-aminoacylase derived from Alcaligenes denitrificans subsp. xylosoxydans MI-4, SEQ ID NO: 1 (protein)", "chain": "MSQSDSQPFDLLLAGGTLIDGSNTPGRRADLGVRGDRIAAIGDLSDAAAHTRVDVSGLVVAPGFIDSHTHDDNYLLRRRDMTPKISQGVTTVVTGNCGISLAPLAHANPPAPLDLLDEGGSYRFERFADYLDALRATPAAVNAACMVGHSTLRAAVMPDLQRAATDEEIAAMRDLAEEAMASGAIGISTGAFYPPAARATTEEIIEVCRPLSAHGGIYATHMRDEGEHIVAALEETFRIGRELDVPVVISHHKVMGQPNFGRSRETLPLIEAAMARQDVSLDAYPYVAGSTMLKQDRVLLAGRTIITWCKPFPELSGRDLDEVAAERGKSKYDVVPELQPAGAIYFMMDEPDVQRILAFGPTMIGSDGLPHDERPHPRLWGTFPRVLGHYARDLGLFPLETAVWKMTGLTAARFGLAGRGQLQAGYFADLVVFDPATVADTATFEHPTERAAGIHSVYVNGAPVWQEQAFTGQHAGRVLARTAA", "modifications": "Alcaligenes denitrificans subsp. xylosoxydans MI-4"}}, "key": {"[1]": {"assay": "Activity of the cloned, purified enzyme to N-acetyl-L-tryptophan", "assay_type": "biochemical", "settings": "cloned enzyme purified from E. coli", "text": "The present inventors focused on the fact that the D-aminoacylase derived from Alcaligenes denitrificans subsp. xylosoxydans MI-4 strain has an exceedingly high specific activity (404 U/mg) to N-acetyl-D-methionine. According to references, the D-aminoacylase had only 20 U/mg or lower activity to N-acetyl-D-tryptophan. The present inventors cloned the gene encoding the enzyme into E. coli, purified the cloned enzyme, and measured its specific activity. […] Thus, this enzyme can be useful to produce D-tryptophan from N-acetyl-DL-tryptophan."}, "[2]": {"settings": "according to references; cited from earlier work"}, "[3]": {"assay": "Reaction of third generation mutants with 7% N-acetyl-DL-tryptophan in microtiter plate", "assay_type": "cell-based, E. coli HB101", "settings": "25° C., 8 hours", "method": "With a conventional method, recombinant plasmid DNAs were purified from total 10 strains of E. coli JM109 transformant obtained in Example 16. Cells of E. coli HB101 strain were transformed with the recombinant plasmid DNAs to prepare transformants. Each colony grown on a culture plate was inoculated with a toothpick to a well of a microtiter plate which contained 150 μl of LB culture medium containing 50 μg/ml ampicillin and 0.02 mM IPTG, and then the microtiter plate was covered with Breathable Sealing Membrane (Nalgene). The microtiter plate was incubated at 37° C. for 18 hours while being shaken. The reaction was carried out using total 200 μl of a reaction solution containing 100 μl of culture medium solution, 300 mM Tris-hydrochloride buffer (pH 8.0), 7% N-acetyl-DL-tryptophan, and distilled water in each well of a microtiter plate at 25° C. for 8 hours while being shaken. When all of the N-acetyl-D-tryptophan contained in substrate is converted to D-tryptophan, the yield is taken as 100%. While the yield was about 70% with the wild type, the yield was roughly 100% with a third generation mutant obtained in […]. Thus, the competitive inhibition was confirmed to be impaired in the third generation mutants."}, "[4]": {"assay": "D-aminoacylase activity assay (20 mM N-acetyl-D-tryptophan, TNBS method)", "assay_type": "biochemical", "method": "The enzyme reaction can be achieved by incubating 1.0 ml of a reaction solution containing 20 mM N-acetyl-D-tryptophan (Sigma), 50 mM Tris-hydrochloride buffer (pH 7.5), and an enzyme solution at 30° C. for 10 minutes. Then, the reaction is stopped by adding 0.5 ml of a stop solution containing TCA (comprising 0.11 M trichloroacetic acid, 0.22 M sodium acetate, and 0.33 M acetic acid). The amount of D-tryptophan produced can be determined by TNBS method (Biosci. Biotech. Biochem., 58, 24 (1994)).\nFor example, 0.25 ml of 100 mM Na2B4O7 is added to 0.25 ml of the stop solution, 10 μl of 110 mM TNBS (trinitrobenzenesulfonic acid) solution is added to the mixed solution, and immediately thereafter, the resulting mixture is stirred. After the mixture is allowed to stand for five minutes, 1 ml of 100 mM NaHPO4 containing 1.5 mM Na2SO3 is added to the mixture to stop the color reaction. Then, the absorbance of the solution is determined at 420 nm. One unit of the enzyme activity is defined as the amount of enzyme that catalyzes the production of 1 μmol of D-tryptophan at 30° C. for one minute."}, "[5]": {"assay": "Conversion of 5% or 10% N-acetyl-DL-tryptophan by E. coli transformant cells", "assay_type": "cell-based, E. coli HB101", "settings": "25° C.", "method": "Cells of E. coli HB101 strain were transformed with the expression plasmids for the three mutant D-aminoacylases AD-0103, AD-1064, and AD-1927 obtained in Example 8, whose inhibition was impaired. The E. coli cells were inoculated in liquid LB media, and cultured at 30° C. overnight. Then, the transformants were inoculated in 2x YT (2% Bacto tryptone, 1% Bacto-yeast extract, 1.0% sodium chloride, pH 7.2) media and incubated at 30° C. for 18 hours. The E. coli cells were harvested. The bacterial cells were used to hydrolyze N-acetyl-D-tryptophan.\nCells of the respective E. coli transformants prepared from 5 ml of liquid culture media were incubated in 10 ml of reaction solutions which comprised 300 mM Tris-hydrochloride buffer (pH 8.0) containing 5% or 10% N-acetyl-DL-tryptophan at 25° C. while being stirred. An E. coli HB101 strain containing the plasmid pSL-ADD6 with the wild-type D-aminoacylase was used as a control. In assays using 5% N-acetyl-DL-tryptophan as the substrate, the yield was about 50% with the wild type, whereas the yield was about 100% with any one of the four mutants. In assays using 10% N-acetyl-DL-tryptophan as the substrate, the yield was about 15% with the wild type, whereas the yield was about 25% with each of the mutants AD-0103 and AD-1089; the yield was about 40% with the mutant AD-1064, and the yield was about 60% with the mutant AD-1927. […]"}, "[6]": {"assay": "Third generation mutants: activity of producing D-tryptophan (TNBS method)", "assay_type": "cell-based, E. coli JM109", "settings": "2% N-acetyl-DL-tryptophan, 3.5% N-acetyl-L-tryptophan, 25° C., 30 minutes", "text": "The amino acid substitution in each mutant, and the effect of the amino acid substitution, which was estimated as an activity of producing D-tryptophan in the presence of 5% N-acetyl-DL-tryptophan and 2% N-acetyl-L-tryptophan, are shown in Table 2. The “activity”, as used herein, refers to “a colorimetric value of the reaction solution determined at the end of reaction by the TNBS method (Abs. 420)/the degree of bacterial growth (OD600)”.\nCells of the E. coli transformant obtained in Example 9 were inoculated on an LB agar plate. Each colony grown on the plate was inoculated with a toothpick to a well of a microtiter plate which contained 150 μl of LB culture medium containing 50 μg/ml ampicillin and 0.02 mM IPTG, and then the microtiter plate was covered with Breathable Sealing Membrane (Nalgene). The microtiter plate was incubated at 37° C. for 18 hours while being shaken. 10 μl of the culture medium solution was added to the reaction solution containing 300 mM Tris-hydrochloride buffer (pH 8.0), 0.1% cetylpyridinium bromide, 2% N-acetyl-DL-tryptophan, 3.5% N-acetyl-L-tryptophan, and distilled water in the wells of a microtiter plate. The plate was incubated at 25° C. for 30 minutes while being shaken. Then, D-tryptophan produced from N-acetyl-D-tryptophan was quantified by colorimetry according to the TNBS method using D-tryptophan as standard. […]"}}}
{"molecule": "B1", "values": [{"measurement": "activity to N-acetyl-L-tryptophan", "setting": "[1]", "result": "inactive"}, {"measurement": "activity to N-acetyl-D-tryptophan", "setting": "[2]", "result": "≤ 20", "unit": "U/mg"}, {"measurement": "yield", "setting": "[3]", "result": "about 70%"}, {"measurement": "D-aminoacylase activity of cell extract", "setting": "[4]; cell extract of E. coli JM109 transformant", "result": 34, "unit": "U/mg"}, {"measurement": "specific activity of the purified enzyme", "setting": "[4]; purified enzyme, N-acetyl-D-tryptophan", "result": 528, "unit": "U/mg"}, {"measurement": "yield", "setting": "[5]; 5% N-acetyl-DL-tryptophan", "result": "about 50%"}, {"measurement": "yield", "setting": "[5]; 10% N-acetyl-DL-tryptophan", "result": "about 15%"}, {"measurement": "Activity of producing D-tryptophan", "setting": "[6]", "result": 2.65}]}
